Starred links: 1 amine or outer side, 2 acyl side, 3 side chain; linkers in the order of their positions; H or OH if unused. Non-standard residues stand in square brackets, D forms with d. Primed or numbered codes have the meaning given here. No end group written: not given here. Asuha″ = L-2-amino-8-(hydroxyamino)-8-oxooctanoic acid, O=C(CCCCC[C@H](N[*:1])C(=O)[*:2])NO
Columns and labels:
Assay in all cases: Recombinant HDAC µSPOT microarray binding assay;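 as to Bottom (Value): relative spot intensity from the six enzyme-concentration slides imaged together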;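 as to Bottom (dose-response curve fit): peptide spots on cellulose slides incubated with rising HDAC enzyme concentrations, imaged together, four-parameter logistic fit, EC50 is enzyme concentration giving half-maximal binding signal, two experiments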;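 as to Bottom (dose-response fit): slides with spotted peptides incubated with six HDAC concentrations in HEPES buffer pH 7.4, spot intensities fitted by four-parameter logistic, EC50 as enzyme concentration giving half-maximal binding signal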;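 as to Top (Value): relative spot intensity from the six enzyme-concentration slides imaged together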;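 as to Top (dose-response curve fit): peptide spots on cellulose slides incubated with rising HDAC enzyme concentrations, imaged together, four-parameter logistic fit, EC50 is enzyme concentration giving half-maximal binding signal, two experiments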;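 as to Top (dose-response fit): slides with spotted peptides incubated with six HDAC concentrations in HEPES buffer pH 7.4, spot intensities fitted by four-parameter logistic, EC50 as enzyme concentration giving half-maximal binding signal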
[1] = target: T1, HDAC2 (Homo sapiens, UniProt Q92769); conditions: for Bottom (Value) / Top (Value) / HillSlope (Value): HDAC2 microarray dose-response curve fit, X = Asuha, sheet Fig. 3 HDAC2; for Bottom (Value): bottom plateau; for Top (Value): top plateau; for Bottom / HillSlope / Top: dose-response fit parameter, µSPOT microarray, H4 K12X (X = Asuha) peptides, HDAC2;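 as to Bottom (Value): relative spot intensity from the six enzyme-concentration slides imaged together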;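 as to Top (Value): relative spot intensity from the six enzyme-concentration slides imaged together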;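 as to all read-outs here: Cellulose-bound peptide spots on slides incubated with six HDAC enzyme concentrations, binding intensity read, four-parameter variable-slope fit, EC50 is enzyme concentration giving half-maximal binding, in HEPES buffer pH 7.4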
T1 construct: HDAC2 (full length, C-terminal His tag, BPS Bioscience, cat. #: 50002); purchased BPS Bioscience 50002

[2] = target: T2, HDAC1 (Homo sapiens, UniProt Q13547); conditions: µSPOT microarray; for Bottom (dose-response fit): fitted bottom plateau of the binding curve; for Top (dose-response fit): fitted top plateau of the binding curve;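 as to all read-outs here: slides with spotted peptides incubated with six HDAC concentrations in HEPES buffer pH 7.4, spot intensities fitted by four-parameter logistic, EC50 as enzyme concentration giving half-maximal binding signal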
T2 construct: HDAC1 (full length, C-terminal His tag, C-terminal FLAG tag, BPS Bioscience, cat. #: 50051); FLAG (C); purchased BPS Bioscience 50051

[3] = target: T3, HDAC8 (Homo sapiens, UniProt Q9BY41); conditions: for Bottom / HillSlope / Top: HDAC8 µSPOT microarray dose-response fit, X = Asuha, sheet Fig. 3 HDAC8; for Bottom: Bottom Value; for HillSlope: HillSlope Value; for Top: Top Value; for HillSlope (Value): Hill slope of the µSPOT microarray dose-response fit; for HillSlope (Value) / Bottom (Value) / Top (Value): X = Asuha peptides; for Bottom (Value): fitted bottom of the µSPOT microarray dose-response curve; for Top (Value): fitted top of the µSPOT microarray dose-response curve;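 as to all read-outs here: peptide µSPOT slides incubated with varying HDAC enzyme concentrations, imaged signal intensity fitted by four-parameter variable-slope regression, EC50 is enzyme concentration giving half-maximal binding, pH 7.4 HEPES buffer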
T3 construct: HDAC8 (full length, C-terminal His tag, BPS Bioscience, cat. #: 50008); purchased BPS Bioscience 50008
T3 sequence (Q9BY41 1-377): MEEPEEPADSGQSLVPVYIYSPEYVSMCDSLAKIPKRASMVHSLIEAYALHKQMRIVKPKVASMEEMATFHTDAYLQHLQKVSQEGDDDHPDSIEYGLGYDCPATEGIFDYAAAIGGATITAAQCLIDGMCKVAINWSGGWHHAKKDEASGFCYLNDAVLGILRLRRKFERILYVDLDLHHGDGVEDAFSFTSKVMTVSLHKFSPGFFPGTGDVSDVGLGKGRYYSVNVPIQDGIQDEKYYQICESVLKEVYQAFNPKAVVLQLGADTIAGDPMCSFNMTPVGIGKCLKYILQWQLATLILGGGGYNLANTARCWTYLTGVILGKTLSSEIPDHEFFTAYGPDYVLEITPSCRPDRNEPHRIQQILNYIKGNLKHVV
Method: (§1) Experiments were performed twice, data were obtained with Array Analyze software (Active Motif), and data analysis and representation were performed with the GraphPad Prism 7 software. Outliers were curated manually and data were fitted to nonlinear regression [log(agonist) vs. response—variable slope (four parameters)]. […] Non-sigmoidal curves were denoted as not determined (N.D.) The pEC50 values were determined as the concentration of HDAC enzyme required for half-maximal binding signal.

[4] = target: T4, HDAC3/NCoR2 (Homo sapiens, UniProt O15379); conditions: for Bottom (dose-response curve fit): fitted bottom plateau of binding signal; for Top (dose-response curve fit): fitted top plateau of binding signal;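 as to all read-outs here: peptide spots on cellulose slides incubated with rising HDAC enzyme concentrations, imaged together, four-parameter logistic fit, EC50 is enzyme concentration giving half-maximal binding signal, two experiments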
T4 construct: HDAC3/NCoR2 (full length, C-terminal His tag, NCoR2 N-terminal GST tag); purchased BPS Bioscience 50003
Method: as §1

[5] = recombinant HDAC1, Fig. 3, X = Asuha, Hill slope of the binding curve
[6] = recombinant HDAC1, Fig. 3, X = Asuha
[7] = HDAC3 µSPOT microarray, Fig. 3, Hill slope of dose-response fit, X = Asuha
[8] = HDAC3 µSPOT microarray, Fig. 3, X = Asuha
[9] = dose-response fit parameter, H4 K12X (X = Asuha) peptides, HDAC1
[10] = dose-response fit parameter, µSPOT microarray, H4 K12X (X = Asuha) peptides, HDAC3

T2 sequence (Q13547 whole entry): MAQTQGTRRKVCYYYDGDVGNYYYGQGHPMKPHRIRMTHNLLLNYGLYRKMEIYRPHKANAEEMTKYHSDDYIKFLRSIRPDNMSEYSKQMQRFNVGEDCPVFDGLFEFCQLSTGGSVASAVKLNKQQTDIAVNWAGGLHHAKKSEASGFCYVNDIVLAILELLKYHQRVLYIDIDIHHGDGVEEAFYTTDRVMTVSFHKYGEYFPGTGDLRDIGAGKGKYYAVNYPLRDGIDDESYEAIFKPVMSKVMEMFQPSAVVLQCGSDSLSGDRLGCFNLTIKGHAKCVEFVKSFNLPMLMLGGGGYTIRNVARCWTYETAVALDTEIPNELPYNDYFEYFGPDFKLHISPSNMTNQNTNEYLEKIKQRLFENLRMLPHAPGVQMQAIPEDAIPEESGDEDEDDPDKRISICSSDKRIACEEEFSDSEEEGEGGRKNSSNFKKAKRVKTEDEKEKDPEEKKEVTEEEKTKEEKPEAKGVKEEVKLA
T4 sequence (O15379 whole entry): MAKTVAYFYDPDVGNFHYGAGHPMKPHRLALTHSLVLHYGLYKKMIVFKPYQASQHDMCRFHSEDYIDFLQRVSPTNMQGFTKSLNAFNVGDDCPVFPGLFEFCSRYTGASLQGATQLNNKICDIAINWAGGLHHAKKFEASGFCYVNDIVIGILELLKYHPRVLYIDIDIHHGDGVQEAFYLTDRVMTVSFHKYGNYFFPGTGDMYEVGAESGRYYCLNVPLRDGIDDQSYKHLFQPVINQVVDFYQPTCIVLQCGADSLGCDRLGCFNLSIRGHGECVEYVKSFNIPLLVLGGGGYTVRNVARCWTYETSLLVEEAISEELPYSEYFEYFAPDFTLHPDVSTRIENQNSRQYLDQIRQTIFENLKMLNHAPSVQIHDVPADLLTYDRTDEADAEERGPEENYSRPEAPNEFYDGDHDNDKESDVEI
T4 sequence (Q9Y618 389-480 partner limits assumed): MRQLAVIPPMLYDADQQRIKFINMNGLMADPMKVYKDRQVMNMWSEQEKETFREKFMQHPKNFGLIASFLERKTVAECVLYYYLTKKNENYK
T1 sequence (Q92769 whole entry): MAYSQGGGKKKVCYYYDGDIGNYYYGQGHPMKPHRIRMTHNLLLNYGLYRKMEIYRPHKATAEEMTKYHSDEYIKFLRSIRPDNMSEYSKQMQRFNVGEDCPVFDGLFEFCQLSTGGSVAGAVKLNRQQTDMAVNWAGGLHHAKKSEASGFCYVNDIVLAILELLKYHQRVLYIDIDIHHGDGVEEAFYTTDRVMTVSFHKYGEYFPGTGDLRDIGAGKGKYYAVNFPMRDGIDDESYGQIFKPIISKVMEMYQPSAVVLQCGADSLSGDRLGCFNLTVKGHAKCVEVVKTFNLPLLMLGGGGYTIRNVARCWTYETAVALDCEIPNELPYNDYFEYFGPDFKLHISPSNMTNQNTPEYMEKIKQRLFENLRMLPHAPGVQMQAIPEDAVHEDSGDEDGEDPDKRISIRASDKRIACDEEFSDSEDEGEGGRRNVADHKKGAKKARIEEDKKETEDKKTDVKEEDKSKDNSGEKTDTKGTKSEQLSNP

Row | Substance | Bottom (Value) [1] | Top (Value) [1] | HillSlope (Value) [1] | HillSlope [2, 5] | Bottom (dose-response fit) [2, 6] | Top (dose-response fit) [2, 6] | Bottom [3] | HillSlope [3] | Top [3] | HillSlope [4, 7] | Bottom (dose-response curve fit) [4, 8] | Top (dose-response curve fit) [4, 8] | Bottom [1] | HillSlope [1] | Top [1] | Bottom [2, 9] | HillSlope [2, 9] | Top [2, 9] | HillSlope (Value) [3] | Bottom (Value) [3] | also measured
1 | H2A 16-31 (TRSSRAGLQFPVGRVH; microarray-immobilized; UniProt P0C0S8 17-32, looked up, fragment) | 0.04 | 3.35 | 1.17 | 1 | 0.03 | 1.15 | 0.05 | 6.81 | 0.12 | 0.97 | 0.01 | 0.73 |  |  |  |  |  |  |  |  | LogEC50 (M) ([2]; recombinant HDAC1, Fig. 3, X = Asuha, values are log10 of EC50 in M): -7.63 M
2 | H2A 79-94 (IPRHLQLAIRNDEELN; UniProt P0C0S8 80-95, looked up, fragment) | 0.02 | 40.23 | 1.01 | 1.08 | 0.02 | 19.1 | 0.02 | 7.17 | 0.12 | 1.48 | 0.01 | 0.69 |  |  |  |  |  |  |  |  | 
3 | P12 (KGLGXGGA; K12 replaced by Asuha (X)) |  |  |  |  |  |  |  |  |  |  |  |  | 0.02 | 7.89 | 0.14 | 0.01 | 0.67 | 0.47 | 1.3 | 0.02 | Top (Value) [3]: 0.58; Bottom [4, 10]: 0.04; HillSlope [4, 10]: 2.48; Top [4, 10]: 0.98; LogEC50 (M) ([4]; log of EC50 in M, dose-response fit, µSPOT microarray, H4 K12X (X = Asuha) peptides, HDAC3): -8.71 M
4 | H2A 100-115 (VTIAQGGVLPNIQAVL; UniProt P0C0S8 101-116, looked up, fragment) | 0.02 | 9.23 | 0.88 | 1.46 | 0.02 | 0.26 | 0.02 | 0.63 | 7.44 | 1.35 | 0 | 0.72 |  |  |  |  |  |  |  |  | 
5 | P13 (GLG[Asuha″]GGA) |  |  |  |  |  |  |  |  |  |  |  |  | 0.01 | 8.37 | 0.04 | 0.02 | 0.73 | 0.36 | 17.49 | 0.01 | Top (Value) [3]: 0.03; Bottom [4, 10]: -0.01; HillSlope [4, 10]: 0.48; Top [4, 10]: 24.94

Source: publication PMC7782793, “Hydroxamic acid-modified peptide microarrays for profiling isozyme-selective interactions and inhibition of histone deacetylases” (Nature Communications, 2021)
